Legend:
[1] = Binding of endogenous heme on expression in E. coli (absorption spectra); type: cell-based; conditions: expressed in E. coli, Soret and Q bands at 410 and 550 nm
Description: FIGS. 18A-18B. enFold proteins are capable of noncovalently binding endogenous ligands in the cell. […] Inset: E. coli cultures of after induction). FIG. 18B: Denovo proteins from binary sequence patterning. Previous studies have only been able to incorporate heme exogenously, i.e. after expression and purification, heme is added to the purified apo-protein. See Patel et al, Protein Science, 18:1388-1400.
The computational method described here is capable of producing proteins that noncovalently bind ligands in vivo. We have observed loading of endogenous heme in a PS1 variant, where 7 terminal residues near the binding ligand site were deleted to allow incorporation of a heme ligand with its bulky, charged proprionate functional groups (FIG. 16). […] These apo-proteins remain competent to bind an endogenous ligand, for example heme (FIG. 17 and FIGS. 18A-18B). These proteins are the first de novo designed proteins to our knowledge that noncovalently bind heme in vivo.

[2] = Porphyrin binding to apo-protein, electronic absorption spectra ((CF3)4PZn loading)
Description: FIGS. 3A-3D. Biophysical characterization of apo- and holo-PS1. FIG. 3A: Electronic absorption and emission spectra of (CF3)4PZn/PS1 holo-protein and (CF3)4PZn in toluene solvent. […] FIG. 3B: Determination of KD by apo-PS1 titration into a buffer solution (100 mM NaCl, 50 mM NaPi, pH 7.5) of (CF3)4PZn with 1% w/v octyl-b-D-glucopyranoside. […] FIG. 3C: Circular dichroism (CD) spectra of apo- and holo-PS1 in 50 mM NaPi, 100 mM NaCl, pH 7.5 as a function of temperature. The transitions appear reversible based on the fact that the spectra are identical after cooling to room temperature. Units are in molar residue ellipticity. […] FIG. 3D: Pump-probe transient absorption spectra of (CF3)4PZn bound in the interior of holo-PS1 at 21° C. and 100° C. […] Inset exemplifies identical transient dynamics (primarily intersystem crossing from S1 to T1) at ΔAbs.=482 nm (scaled). Experimental conditions: solvent=50 mM NaPi, 100 mM NaCl, pH 7.5; excitation wavelength=600±5 nm; magic-angle polarization between pump and probe pulses; pump-probe cross-correlation of ˜250 fs.
FIG. 10. Absorption spectra of (CF3)4PZn/PS1 and (CF3)4PZn/PS2 complexes. […] Experimental conditions: buffer=100 mM NaCl, 50 mM NaPi, pH 7.5.
A 2-fold excess of the cofactor (CF3)4PZn was added from a 4 mM DMSO stock solution to a 50 mM NaPi, 100 mM NaCl, pH 7.5 buffer with apo-protein (Note that final DMSO concentrations were kept <1%.). Buffer solution of apo-PS1 protein was heated for 5 minutes at 50° C., (CF3)4PZn was then added from the DMSO stock solution, the resultant mixture was vortexed for 5 seconds, and placed back in the heat block at 50° C. for 15 minutes, with vortexing every 3 minutes. The protein/cofactor solution was then spun at 14000×g in a Amicon Ultra-0.5 mL centrifuge filter for 10 min, three times, replacing the buffer to 0.5 mL after each 10 min spin. Finally, the protein solution was spun for 4 min at 12000×g in an Amicon ultrafree-MC GV filter (UFC30GV0S). The holo-PS1 sample was then used for spectroscopic experiments immediately afterward, and diluted to an appropriate concentration if necessary. Binding of (CF3)4PFe was carried out in the same fashion, with the exception that the porphyrin was first dissolved in a stock of DMSO/CHCl3.
Electronic absorption spectra were collected using a Shimadzu UV-1700 UV-Vis spectrophotometer or Cary 5000 spectrophotometer. Steady-state emission spectra were obtained on FLS920P spectrophotometer (Edinburgh Instruments Ltd. Livingston, UK) in 1 cm quartz optical cells. The steady-state emission spectra were corrected using the correction factor generated by the manufacturer.

Molecule | binding / loading of endogenous heme [1] | binding / loading of endogenous heme ([1]; listed as PS1 deletion variant) | porphyrin loading ([2]; (CF3)4PZn, based on absorbance at 280 nm and 423 nm, 100 mM NaCl, 50 mM NaPi, pH 7.5) [%] | binding of (CF3)4PZn ([2]; narrow electronic absorption bands of the porphyrin)
PS1 D103-109: PS1 variant with 7 terminal residues near the ligand binding site deleted, SEQ ID NO:8 (protein) EFEKLRQTGDELVQAFQRLREIFDKGDDDSLEQVLEEIEELIQKHRQLFDNRQEAADTEAAKQGDQWVQLFQRFREAIDKGDKDSLEQLLEELEQALQKIR | high loading of endogenous heme | binds endogenous heme | – | –
PS2: second designed porphyrin-binding protein with redesigned core (Ser94, Trp68), SEQ ID NO:7 (protein) SEFEKLRQTGDEIIQLLQRLREAIDKGDDDSLEQILEELEEAFQKHRQLFENRQEAADTEFAKQGDQWLQLFQRIREAIDKGDKDSLEQLFEESEQGIQKIRELAEKKN | – | – | 100 | bound (CF3)4PZn in a homogenous environment
